Test results from paper PMC7867234.
Numbering of substitutions follows the chain as printed.

target: T1, OmpR-His6 (Yersinia enterocolitica Ye9) (UniProt P74982); assay: EMSA; conditions: 50 mM Tris-HCl pH 8.0, 100 mM KCl, 1 mM EDTA, 1 mM DTT, 20 mM MgCl2, 12% glycerol, 100 ug/mL BSA, 0.1% Triton X-100; 22 C, 15 min; 0.05 or 0.3 pmol DNA in …
T1 sequence: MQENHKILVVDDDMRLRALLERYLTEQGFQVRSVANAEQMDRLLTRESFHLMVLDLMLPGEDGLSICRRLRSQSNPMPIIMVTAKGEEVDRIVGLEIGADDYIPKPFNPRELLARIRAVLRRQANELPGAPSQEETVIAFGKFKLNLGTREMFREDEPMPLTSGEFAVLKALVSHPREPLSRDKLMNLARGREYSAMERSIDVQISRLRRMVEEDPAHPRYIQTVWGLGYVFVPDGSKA

Row | Sequence | binding
1 | CGTTGCTTCTATCCCTCTGGTTATACTCTGTTAAGCCACCCACAGATCCGCACTTTCATCCGTGCAAAATGAAAATAAACTGCTACAAATTTGTAACCTTATACTTTGCAGTCATATACTTAAATTATGCAACAATCCCATTCATCAATACATTGCATGATTAATCGGGCAAAGTGTGCAATTATATCTTTGTTAACAACCACGGTTTTCATTTGGGGCTAGCAGTTCTATAATGAGACGCAA (double strand) [F23] | binds
2 | GCAGTCATATACTTAAATTATGCAACAATCCCATTCATCAATACATTGCATGATTAATCGGGCAAAGTGTGCAATTATATCTTTGTTAACAACCACGGTTTTCATTTGGGGCTAGCAGTTCTATAATGAGACGCAA (double strand) [F3] | binds
3 | CAATACATTGCATGATTAATCGGGCAAAGTGTGCAATTATATCTTTGTTAACAACCACGGTTTTCATTTGGGGCTAGCAGTTCTATAATGAGACGCAATTGAGAATATTGCGCCACGGATGTCATAGGCTGAACAGCCTTAATTTGAATCGATAGTAACAGGACTGAATCCGCATG (double strand) [F4] | binds more weakly
4 | TCATTTTGCACGGATGAAAGTGCGGATCTGTGGGTGGCTTAACAGAGTATAACCAGAGGGATAGAAGCAACGGAAACGCGTGGCAATATTAAATTTCATCCTCGCGTTTCCGACATGACAAATTAACCGGTAATTTCGGCCAGATTCAGTTCT (double strand) [F1] | binds more weakly
5 | CGTTGCTTCTATCCCTCTGGTTATACTCTGTTAAGCCACCCACAGATCCGCACTTTCATCCGTGCAAAATGAAAATAAACTGCTACAAATTTGTAACCTTATACTTTGCAGTCAT (double strand) [F2] | binds
6 | TGACAAATGAGCGCGTTGAAGCTTGGGTAAAACAGATCAGCGAAGAACTGAATCTGGCCGAAATTACCGGTTAATTTGTCATGTCGGAAACGCGAGGATGAAATTTAATATTGCCACGCGTTTCCGTTGCTTCTATCCCTCTGGTTATACTCTGTTAAGCCACCCACAGATCCGCACTTTCATCCGTGCAAAATGAAAATAAACTGCTACAAATTTGTAACCTTATACTTTGCAGTCAT (double strand) [F12] | binds
7 | GCATGATTAATCGGGCAAAGTGTGCAATTATATCTTTGTTAACAACCACGGTTTTCATTTGGGGCTAGCAGTTCTATAATGAGACGCAATTGAGAATATTGCGCCACGGATGTCATAGGCTGAACAGCC (double strand) [F0] | no binding
8 | GCAGTCATATACTTAAATTATGCAACAATCCCATTCATCAATACATTGCATGATTAATCGGGCAAAGTGTGCAATTATATCTTTGTTAACAACCACGGTTTTCATTTGGGGCTAGCAGTTCTATAATGAGACGCAATTGAGAATATTGCGCCACGGATGTCATAGGCTGAACAGCCTTAATTTGAATCGATAGTAACAGGACTGAATCCGCATG (double strand) [F34] | binds

target: T2, OmpR-His6 (Yersinia enterocolitica Ye9) (UniProt P74982); assay: EMSA; conditions: 50 mM Tris-HCl pH 8.0, 100 mM KCl, 1 mM EDTA, 1 mM DTT, 20 mM MgCl2, 12% glycerol, 100 ug/mL BSA, 0.1% Triton X-100; 22 C, 15 min; 0.05 or 0.3 pmol DNA in …
T2 sequence: T1 sequence with T136A

Row | Sequence | binding
9 | CAATCTATTCACGGGGCAACAAAAACGAACAAGATTGATAATTATTTTCATTATCAATTCATCCGGCTAATTGTTACATTTGCAATCAGAAAAAAGGTTTGTGTAAACAGCAAAACTCTTTGCTATAAAGTCAATGTTGTTACTACATCAATACCAGTGAAGGAGTCATTATGCCCGCGGTGAAGAAAAATAAGTTGCGCAATATTTCCCCATCATCCAAACCGATTTATCGCGACCAAATTATGCA (double strand) [PfepA] | binds
10 | CCCCCTTATTCCAAATGGTTTTTATTTCTCCTTTCTGTTTTTGCAGCAAGAAATAATTCGTCTGTTTGCGACAAAATTGATTTACTTGGGAAATGTAATCATTAAGATTAGCGTTTCTAAAAAATTACAATCAGACACAATTCCTTTCGCAATAGGCCCAAAATGTTAACGTTTTCCCGTTTGTCTCTG (double strand) [PfecA] | binds
11 | GGTGGTAAAACAAGCGCAAATAGAAATCAGACTCATTAATTTTAAAAATGAAATCGTAATGAATATTTACTTTTGAGTCTTTAACCTGAGTTGAATATGAAAACGATTCTTACTATTATTATTTTAATCATTATTCATTAGTGGTGGAATTTCTCTGAACTCTGGTTTGCTAATGCGTTATAACGAGAGGCTTACATGCATCTGATCCCACAGCGCTCCTACAAAAT (double strand) [PfeoA] | binds more weakly
